Measured values taken from PMC12301738 (The Journal of Biological Chemistry, 2025).

T1: Escherichia coli RelE toxin, fluorescently labeled (RED-NHS) (Escherichia coli, UniProt P0C077)
T1 sequence: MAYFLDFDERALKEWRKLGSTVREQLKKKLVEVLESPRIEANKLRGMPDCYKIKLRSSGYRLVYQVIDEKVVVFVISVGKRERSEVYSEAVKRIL


Molecular target: T1, Escherichia coli RelE toxin, …
Experiment: other fluorescence titration

Binder | EC50
Escherichia coli RelB antitoxin, wildtype (His6-RelB) (natural protein) MGSINLRIDDELKARSYAALEKMGVTPSEALRLMLEYIADNERLPFKQTLLSDEDAELVEIVKERLRNPKPVRVTLDEL | 0.0026 µM
Escherichia coli RelB antitoxin with a stop codon at Leu66 (His6-RelBΔ66–79) (domain or fragment) MGSINLRIDDELKARSYAALEKMGVTPSEALRLMLEYIADNERLPFKQTLLSDEDAELVEIVKER | 24 µM
Escherichia coli RelB antitoxin truncated at Lys70 (His6-RelBΔ70–79) (domain or fragment) MGSINLRIDDELKARSYAALEKMGVTPSEALRLMLEYIADNERLPFKQTLLSDEDAELVEIVKERLRNP | 0.88 µM
